In assay [1] the target is FcγRIII V158 (CD16a receptor, high-affinity allele) (human) (UniProt P08637). In words: SPR (Biacore).
The target in assay [2] is FcγRIII F158 (CD16a receptor, low-affinity allele) (human) (UniProt P08637). Kind of assay: SPR (Biacore).
Assay [3] concerns the target T1, human CD70, full length, on CHO cells (CHO-human CD70-B07) (human, UniProt P32970 1-193).
T1 construct: whole, on cells; Stably transfected CHO cells; also called CHO-CD70
T1 sequence (looked up): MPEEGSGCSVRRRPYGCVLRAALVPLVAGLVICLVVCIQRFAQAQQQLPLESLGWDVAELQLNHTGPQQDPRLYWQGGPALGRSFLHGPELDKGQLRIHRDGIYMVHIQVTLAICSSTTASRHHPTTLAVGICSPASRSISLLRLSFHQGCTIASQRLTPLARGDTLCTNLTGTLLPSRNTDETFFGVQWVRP
In words: flow cytometry, humanized IgG1 on CHO-human CD70 cells. The method, then:
(§1) The supernatant was discarded and the cells were gently tapped to be loosening. 50 μL of gradient diluted antibodies were added (antibody concentration: from 30 μg/mL, 3-fold dilution for 8 gradients) per well, and incubated at 4° C. for 1 hour. After incubation, 200 μL of 0.5% BSA was added to each well for washing 3 times. 50 μL/well of secondary antibody Alexa Fluro647 anti-human IgG (Jackson ImmunoResearch, Cat. No: 109-606-170) was added and incubated at 4° C. for 45 minutes. At the end of the incubation, each well was washed 3 times with 180 μL of 0.5% BSA and finally resuspended in 50 μL of PBS for iQue (Intellicyt) assay.
For orientation: In flow cytometry, cells or beads pass a laser one at a time.

In assay [4] the target is T2, recombinant trimeric protein of human CD70 extracellular region (human CD70 mIgG Fc (knob) / mouse IgG Fc … (human, UniProt P01863 98-330 = IgG part)).
T2 construct: The ELISA and Octet texts say only 'recombinant CD70 protein' / 'CM352 antigen'; also called recombinant human CD70 protein; recombinant CD70 protein
T2 chain 1: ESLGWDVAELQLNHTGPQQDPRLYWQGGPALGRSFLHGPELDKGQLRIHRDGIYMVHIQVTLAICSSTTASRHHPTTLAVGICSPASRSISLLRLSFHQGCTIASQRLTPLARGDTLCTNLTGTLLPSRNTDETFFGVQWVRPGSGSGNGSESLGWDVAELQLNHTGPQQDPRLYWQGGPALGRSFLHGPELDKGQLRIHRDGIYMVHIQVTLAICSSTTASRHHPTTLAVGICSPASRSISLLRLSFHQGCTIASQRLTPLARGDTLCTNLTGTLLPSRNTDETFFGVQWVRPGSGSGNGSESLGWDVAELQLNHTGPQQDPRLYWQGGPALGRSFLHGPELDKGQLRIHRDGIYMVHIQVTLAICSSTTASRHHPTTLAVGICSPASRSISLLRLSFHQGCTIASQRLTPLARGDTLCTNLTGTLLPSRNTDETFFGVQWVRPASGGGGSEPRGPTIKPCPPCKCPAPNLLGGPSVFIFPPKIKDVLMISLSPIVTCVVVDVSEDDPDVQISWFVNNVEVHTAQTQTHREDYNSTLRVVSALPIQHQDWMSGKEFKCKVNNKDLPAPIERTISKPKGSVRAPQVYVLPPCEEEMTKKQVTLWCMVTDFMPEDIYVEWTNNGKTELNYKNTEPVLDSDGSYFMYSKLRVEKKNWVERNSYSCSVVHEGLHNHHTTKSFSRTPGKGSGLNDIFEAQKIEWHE
T2 chain 2: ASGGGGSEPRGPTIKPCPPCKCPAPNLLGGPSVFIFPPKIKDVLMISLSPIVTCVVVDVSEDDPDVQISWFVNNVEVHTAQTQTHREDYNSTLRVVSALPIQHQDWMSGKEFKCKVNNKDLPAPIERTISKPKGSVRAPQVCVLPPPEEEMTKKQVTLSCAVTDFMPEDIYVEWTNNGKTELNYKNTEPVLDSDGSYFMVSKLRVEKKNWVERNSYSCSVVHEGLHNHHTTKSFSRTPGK
In words: competition ELISA, humanized IgG1 titrated, CD27 coated, biotin-CD70, human pair. How it is done:
The recombinant human CD27 protein was coated at 1 μg/mL in a 96-well microtiter plate and incubated overnight at 4° C. The next day, the plate was washed 3 times with PBS, added with 200 μL of 2% defatted dry milk/PBS, blocked at room temperature for 2 hours, and washed once with PBS. […] 30 μl of the antibody was added per well and incubated at room temperature for 30 minutes. […] The plate was washed 3 times with PBST and PBS and dried by spinning. A secondary antibody solution Streptavidin-coupled horseradish peroxidase SA-HRP (BD bioscience, Cat. No: 6222697) was diluted with 0.5% BSA in a ratio of 1:8000. 100 μL of the diluent was added into each well and incubated at room temperature for 30 minutes. The plate was washed 3 times with PBST and PBS and dried by spinning. […] of color development solution (TMB solution, Sigma, Cat. No: T2885) was added into each well and protected from light at 37° C. for reaction. After the substrate developed moderately, […] of H₂SO₄ was added into each well to terminate the reaction. The OD450 nm was determined using an enzyme-linked detector within 30 minutes, and the data was collected. The results were calculated by using Graph Pad Prism 5 software. See FIG. 10-1, 10-2, and Table 12 for the results.
On the technique in general: In an ELISA, binding on a coated surface is turned into a signal by an enzyme label.

In assay [5] the target is T2, recombinant trimeric protein of human …. In words: cell-based or functional assay.
Assay [6] deals with T3, recombinant cynomolgus monkey CD70 protein (cynomolgus monkey, UniProt A0A2K5WTU9 39-190).
T3 construct: it stands only in column heads ('Monkey', 'Cynomolgus Monkey CD70/CD27') and in result sentences; also called Monkey (ELISA)
T3 sequence: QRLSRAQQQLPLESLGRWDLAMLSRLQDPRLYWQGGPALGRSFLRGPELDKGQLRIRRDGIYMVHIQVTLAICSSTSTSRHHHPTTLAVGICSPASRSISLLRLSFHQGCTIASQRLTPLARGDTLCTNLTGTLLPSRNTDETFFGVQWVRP
Kind of assay: competition ELISA, humanized IgG1 titrated, CD27 coated, biotin-CD70, cynomolgus pair.

Assay [7] addresses T4, cynomolgus monkey CD70, full length, on CHO cells (CHO-monkey CD70-D01) (cynomolgus monkey, UniProt A0A2K5WTU9 1-190).
T4 construct: whole, on cells; Stably transfected CHO cells; also called CHO-cynomolgus monkey CD70
T4 sequence: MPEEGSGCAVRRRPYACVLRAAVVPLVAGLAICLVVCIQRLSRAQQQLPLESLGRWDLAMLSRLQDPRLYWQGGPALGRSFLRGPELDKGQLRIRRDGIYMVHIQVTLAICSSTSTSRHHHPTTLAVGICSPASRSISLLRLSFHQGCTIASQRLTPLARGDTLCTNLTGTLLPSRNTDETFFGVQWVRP
In words: flow cytometry, humanized IgG1 on CHO-cynomolgus monkey CD70 cells. How it is done:
as §1

For assay [8], the target named is FcγRIIIF158 on PBMC of FcγRIIIF158/F158 volunteers (human) (UniProt P08637). Kind of assay: cell-based or functional assay.
FcγRIIIF158 on PBMC of FcγRIIIF158/F158 volunteers (human), sequence (P08637 17-254): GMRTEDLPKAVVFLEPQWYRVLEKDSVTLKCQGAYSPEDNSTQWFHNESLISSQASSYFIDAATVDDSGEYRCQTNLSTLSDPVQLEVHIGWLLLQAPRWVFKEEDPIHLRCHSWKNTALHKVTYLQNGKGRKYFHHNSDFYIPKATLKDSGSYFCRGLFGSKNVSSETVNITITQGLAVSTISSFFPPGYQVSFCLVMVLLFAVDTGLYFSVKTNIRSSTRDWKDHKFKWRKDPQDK
In assay [9] the target is FcγRIIIV158 on PBMC of FcγRIIIV158/V158 volunteers (human) (UniProt P08637). Kind of assay: cell-based or functional assay.
FcγRIIIV158 on PBMC of FcγRIIIV158/V158 volunteers (human), sequence (P08637 17-254 F176V): as the sequence (P08637 17-254) above, with F160V counted along it
In assay [10] the target is T4, cynomolgus monkey CD70, full length, on …. Kind of assay: flow cytometry, chimeric IgG on CHO-cynomolgus monkey CD70 cells. The method, then: (§2) Different cells in logarithmic growth phase were taken, blocked with 3% BSA for 30 minutes, and plated to a 96-well U-plate at 5×10⁴ cells/100 μL. The centrifuge was performed at 1100 rpm for 3 minutes. The supernatant was discarded and the cells were gently tapped to be loosening. 50 μL of gradient diluted antibody was added (antibody concentration: from 30 μg/mL, 3-fold dilution for 5 gradients) per well, and incubated at 4° C. for 1 hour. After incubation, 180 μL of 0.5% BSA was added to each well for washing 3 times. 30 μL/well of secondary antibody AlexaFluro647 anti-human IgG (Jackson Immuno Research, Cat. No: 109-606-170) was added and incubated at 4° C. for 45 minutes. At the end of the incubation, each well was washed 3 times with 180 μL of 0.5% BSA and finally resuspended in 50 μL of PBS for iQue (Intellicyt, USA) assay.

Assay [11] addresses T1, human CD70, full length, on CHO cells …. Kind of assay: FACS (iQue) on CHO-human CD70 stably transfected cells, Alexa Fluor 647 anti-human IgG secondary antibody. The method, then:
as §1

Assay [12] concerns the target T2, recombinant trimeric protein of human …. Kind of assay: competition ELISA, chimeric IgG titrated, CD27 coated, biotin-CD70, human pair. The method, then: (§3) The recombinant CD27 protein was coated at 1 μg/mL in a 96-well microtiter plate and incubated overnight at 4° C. The next day, the plate was washed 3 times with PBS, added with 200 μL of 2% defatted dry milk/PBS, blocked at room temperature for 2 hours, and washed once with PBS. The purified chimeric antibody was divided to 12 concentration gradients starting at 100 nM and diluted in a 1:3 gradient. […] of the antibody was added per well and incubated at room temperature for 30 minutes. […] The plate was washed 3 times with PBST and PBS and dried by spinning. A secondary antibody Streptavidin-coupled horseradish peroxidase SA-HRP (BD bioscience, cat. No: 6222697) was diluted with 0.5% BSA in a ratio of 1:8000. 100 μL of the diluent was added into each well and incubated at room temperature for 30 minutes. The plate was washed 3 times with PBST and PBS and dried by spinning. 100 μl of color development solution (TMB solution, Sigma, Cat. No: T2885) was added into each well and protected from light at 37° C. for reaction. After the substrate developed moderately, 50 μl of H₂SO₄ was added into each well to terminate the reaction. The OD450 nm was determined by using an enzyme-linked detector within 30 minutes, and the data was collected. The results were calculated by using Graph Pad Prism 5 software.

Assay [13] deals with T3, recombinant cynomolgus monkey CD70 …. Kind of assay: competition ELISA, chimeric IgG titrated, CD27 coated, biotin-CD70, cynomolgus pair. The method, then:
as §3

In assay [14] the target is T1, human CD70, full length, on CHO cells …. In words: flow cytometry, chimeric IgG on CHO-human CD70 cells. The method, then:
as §2

For assay [15], the target named is T4, cynomolgus monkey CD70, full length, on …. In words: FACS (iQue) on CHO-cynomolgus monkey CD70 stably transfected cells, Alexa Fluor 647 anti-human IgG secondary antibody. How it is done: as §1

The Kd is a measure of binding affinity in units of concentration. Usually EC50 stands for the concentration needed to bring the measured effect to its halfway point. By IC50 is commonly meant the concentration that inhibits the measured activity by half. The EC50 (read off the curve) is the concentration at which the effect is half-maximal.

FcγRIII F158 (CD16a receptor, low-affinity allele) (human), sequence (P08637 17-208 limits assumed): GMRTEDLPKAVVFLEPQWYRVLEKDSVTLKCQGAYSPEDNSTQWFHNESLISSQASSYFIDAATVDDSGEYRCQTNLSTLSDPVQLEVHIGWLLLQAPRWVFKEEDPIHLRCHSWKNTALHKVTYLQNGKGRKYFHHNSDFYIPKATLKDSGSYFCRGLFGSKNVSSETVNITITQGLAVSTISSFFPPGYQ
FcγRIII V158 (CD16a receptor, high-affinity allele) (human), sequence (P08637 17-208 F176V limits assumed): as the sequence (P08637 17-208 limits assumed) above, with F160V counted along it

B1: humanized antibody Ab004 (IgG1 wild type) (antibody, V domains shown)
VH: QVQLVQSGSELKKPGASVKVSCKASGYTFTNYGMNWVRQAPGQGLEWMGWINTYTGEPTYADGFTGRFVFSLDTSASTAYLQISSLKAEDTAVYFCAREEDYRYVFNYWGQGTLVTVSS
VL: DIQMTQSPSSLSASVGDRVTITCQASQDISNYLNWYQQKPGKAPKLLIYDTSRLHAGVPSRFSGSGSGTDYTFTISSLQPEDIATYFCQQGVTLPLTFGQGTKLEIK
notes: also called Ab004 IgG1 wt; h39H5 VHv2 + h39H5 VKv1
For the molecule B1, the Kd is 565 nM in assay [1] and 1300 nM in assay [2]. The EC50 worked out at 2.15 nM in assay [3] and 3.39 nM in assay [7]. Also, the IC50 in [4] stood at 0.04 nM; in assay [6] it was 0.05 nM. Moreover, in assay [5], the “Inhibition of IL-8 secretion IC50(nM), HT1080-human CD27 cells stimulated with recombinant human CD70” value came to 11 nM. For the same molecule, the ADCC Killing EC50, Daudi targets, FcγRIIIF158 PBMC in assay [8] was 0.23 nM. The molecule also came in with an ADCC Maximum killing rate, Daudi targets, FcγRIIIF158 PBMC in assay [8] of 13%. In assay [9], the ADCC Killing EC50, Daudi targets, FcγRIIIV158 PBMC worked out at 0.22 nM. In assay [9], this molecule displayed an ADCC Maximum killing rate, Daudi targets, FcγRIIIV158 PBMC of 40%.

B2: 39H5 chimeric antibody (antibody, V domains shown)
VH: EIQLVQSGPELKKPGETVKISCKASGYTFTNYGMNWVKQAPGQGLKWMGWINTYTGEPTYADDFTGRFAFSLETSASTAYLQINNLKNEDMAAYFCAREEDYRYVFNYWGQGTTLTVSS
VL: DIQMIQSTSSLSASLGNRVTISCRASQDISNYLNWYQQKPDGTVKLLIYDTSRLHAGVPSRFSGSGSGTDYSLTISNLEQEDIATYFCQQGVTLPLTFGAGTKLEIK
B2: the EC50 is 15.1 nM in assay [10] and 10.2 nM in [14]. Further, the “EC50 (read off the curve)” value in [11] and in assay [15] was around 3 nM in each case. The results for the IC50 in assay [12] and in assay [13] were 0.06 nM and 0.08 nM, respectively.

Values taken from US20240247072A1 (KEYMED BIOSCIENCES, published 2024).
